We go through 1 substance from paper PMC3776838, “Detection of Phospho-Sites Generated by Protein Kinase CK2 in CFTR: Mechanistic Aspects of Thr1471 Phosphorylation” (PLoS ONE, 2013).

The experiment has as its target Human CK2 α2β2-holoenzyme (human) (UniProt P68400).

Chain of Human CK2 α2β2-holoenzyme (human) (P68400 whole entry, chain 1 of 2): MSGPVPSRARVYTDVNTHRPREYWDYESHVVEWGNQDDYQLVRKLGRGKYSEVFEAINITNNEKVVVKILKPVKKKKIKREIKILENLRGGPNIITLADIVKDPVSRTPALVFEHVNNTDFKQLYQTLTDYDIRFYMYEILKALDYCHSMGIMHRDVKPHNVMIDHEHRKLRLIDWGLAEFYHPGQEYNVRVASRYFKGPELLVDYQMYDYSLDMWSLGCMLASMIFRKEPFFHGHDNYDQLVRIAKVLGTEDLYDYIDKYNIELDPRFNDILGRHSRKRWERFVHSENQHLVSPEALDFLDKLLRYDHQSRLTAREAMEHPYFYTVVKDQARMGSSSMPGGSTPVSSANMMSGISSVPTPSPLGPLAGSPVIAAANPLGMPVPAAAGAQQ
Chain of Human CK2 α2β2-holoenzyme (human) (P67870 whole entry, chain 2 of 2, further chain): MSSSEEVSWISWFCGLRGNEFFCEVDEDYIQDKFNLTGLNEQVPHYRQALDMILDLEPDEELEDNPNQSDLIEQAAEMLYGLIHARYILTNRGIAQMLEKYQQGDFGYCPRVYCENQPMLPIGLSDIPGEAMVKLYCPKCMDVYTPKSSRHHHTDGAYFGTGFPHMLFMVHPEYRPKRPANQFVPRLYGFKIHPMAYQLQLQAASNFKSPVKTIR
Chain of 42-mer peptide reproducing the C-terminal tail of human CFTR (residues 1439–1480) (P13569 1439-1480): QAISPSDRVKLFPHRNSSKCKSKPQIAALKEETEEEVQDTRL

As to “42-mer peptide reproducing the C-terminal tail of human CFTR (residues 1439–1480) (from UniProt P13569 1439-1480) (domain or fragment)”, the Km of phosphorylation of the 42-mer by CK2 holoenzyme (33P incorporation, Figure 3) came out at 1.4 µM.
